“Also recorded” adds a separate entry of the source.
What was measured:
[1] = tested on: human Schlemm's canal cells; assay: tube formation of human Schlemm's canal cells; type: cell-based; settings: in vitro; vs scrambled siRNA, isotype control or vehicle control of ethanol (0.07%); *P<0.05
From the text: FIGS. 1A-G. (A-C) Real-time quantitative PCR data showing the expression levels of FZD5, ROR1 and FZD2 in human Schlemm's canal cells are regulated by sheer stress (A), Wnt5a intervention by small interference RNAs (siRNAs) (B), or Wnt5a stimulation (C). (D and E) Summarized data showing that tube formation of human Schlemm's canal cells was inhibited by FZD5 siRNA (D) or ROR1 siRNA (E), respectively. Scrambled siRNA was used as negative control. *P<0.05. (F and G) Representative images showing that tube formation of human Schlemm's canal cells are regulated by the intervention of FZD5 (F) or ROR1 (G) via siRNAs. *P<0.05. […]
(§1) In exemplary models vivo data were obtained using well-established mouse model of glaucoma with laser-induced occlusion of episcleral veins (Zhang L, et al. Establishment and Characterization of an Acute Model of Ocular Hypertension by Laser-Induced Occlusion of Episcleral Veins. Invest Ophthalmol Vis Sci. 2017 Aug. 1; 58(10):3879-3886). […] Central corneal thickness and RNFL were measured on Day 3 or Day 7 by in vivo OCT, respectively. […]

[2] = tested on: rabbit; assay: rabbit model, inhibitor delivered locally by eye drops, IOP; type: in vivo
From the text: (§2) These protocols employ two different antibodies: anti-human WNTSA antibody produced in rabbit purified immunoglobulin, buffered aqueous solution (Sigma-Aldrich SAB1411396), and an anti-human WNTSA monoclonal antibody produced in mouse clone 6F2, ascites fluid (Sigma-Aldrich SAB5300183), although other Wnt5a antibodies can be used, e.g. Hanaki et al., Mol Cancer Ther 11(2) February 2012; He et al. Oncogene. 2005, 24 (18): 3054-3058.
(§3) These protocols employ a t-butyloxycarbonyl-modified Wnt5a-derived hexapeptide (Box5) that functions as a potent antagonist of Wnt5a (Jenei, et la., PNAS USA, 106 (46), 19473-8), and 6,7-dihydro -10alpha-hydroxy radicicol, a potent WNT-5A expression inhibitor with relatively low toxicity and excellent stability (Shinonaga et al. Bioorg Med Chem. 2009 Jul. 1; 17(13):4622-35).
(§4) These protocols employed OMP18R5 (a humanized monoclonal antibody that binds FZD5), Abcam ab52565 (a monoclonal antibody that binds FZD2), and cirmtuzumab (a humanized IgG1 anti-ROR1 monoclonal antibody), though an anti-human FZD5, FZD2 siRNA and ROR1 polyclonal and monoclonal antibodies, are commercially available from multiple sources, e.g. ThermoFisher Scientific, Abcam, SigmaAldrich, etc.); see also U.S. Pat. No. 9,573,998 for antibodies against human FZD5.

[3] = tested on: mouse; assay: mouse model, inhibitor delivered locally by eye drops, IOP; type: in vivo
From the text: as §2, §3, §4

[4] = tested on: human Schlemm's canal cells; assay: Fluo-4 staining of intracellular calcium signal; type: cell-based
From the text: (§5) FIGS. 2A-C. (A-C, top panels) Real-time quantitative PCR data showing the expression levels of PLCB1, PPP3R1 and NFATC3 in human Schlemm's canal cells are regulated by sheer stress (A), Wnt5a intervention via siRNAs (B), or Wnt5a stimulation (C). (A-C, lower panels) Representative images and summarized data of Fluo-4 staining showing intracellular calcium signal is regulated by sheer stress (A), Wnt5a intervention via siRNAs (B), or Wnt5a stimulation (C). Green: Fluo-4, blue: DAPI nuclear staining *P<0.05.
In exemplary models vivo data were obtained using well-established mouse model of glaucoma with laser-induced occlusion of episcleral veins (Zhang L, et al. Establishment and Characterization of an Acute Model of Ocular Hypertension by Laser-Induced Occlusion of Episcleral Veins. Invest Ophthalmol Vis Sci. 2017 Aug. 1; 58(10):3879-3886). Intraocular hypertension is introduced in the right eyes (OD) of the mice with the left eyes (OS) as controls. In these examples, the inhibitors or their controls were delivered daily to the right eyes via local administration of subconjunctival injection, starting from Day 1 after the induction of intraocular hypertension in the right eyes of the mice. Left eyes were used as controls. Central corneal thickness and RNFL were measured on Day 3 or Day 7 by in vivo OCT, respectively. All in vitro data were collected from human Schlemm's cells in culture.

[5] = tested on: human Schlemm's canal cells; assay: real-time quantitative PCR of expression levels in human Schlemm's canal cells; type: cell-based
From the text: FIGS. 1A-G. (A-C) Real-time quantitative PCR data showing the expression levels of FZD5, ROR1 and FZD2 in human Schlemm's canal cells are regulated by sheer stress (A), Wnt5a intervention by small interference RNAs (siRNAs) (B), or Wnt5a stimulation (C). (D and E) Summarized data showing that tube formation of human Schlemm's canal cells was inhibited by FZD5 siRNA (D) or ROR1 siRNA (E), respectively. Scrambled siRNA was used as negative control. *P<0.05. (F and G) Representative images showing that tube formation of human Schlemm's canal cells are regulated by the intervention of FZD5 (F) or ROR1 (G) via siRNAs. *P<0.05.
as §5
FIGS. 3A-B. Real-time quantitative PCR data showing the expression of CAMK2D in human Schlemm's canal cells is regulated by sheer stress (A), or wnt5a stimulation (B), respectively. *P<0.05.
as §1, with “58(10):3879-3886). Intraocular hypertension is introduced in the right eyes (OD) of the mice with the left eyes (OS) as controls.” for “58(10):3879-3886).”

## O=C(OC[C@H]1O[C@@H](OC(=O)c2cc(O)c(O)c(O)c2)[C@H](OC(=O)c2cc(O)c(O)c(O)c2)[C@@H](OC(=O)c2cc(O)c(O)c(O)c2)[C@@H]1OC(=O)c1cc(O)c(O)c(O)c1)c1cc(O)c(O)c(O)c1 [DB03208, Beta-1,2,3,4,6-Penta-O-Galloyl-D-Glucopyranose]
[1]
  tube formation of human Schlemm's canal cells: inhibited

## 6,7-dihydro -10alpha-hydroxy radicicol
[2]
  therapy for pathogenic IOP: effective therapies
[3]
  therapy for pathogenic IOP: effective therapies

B1: Wnt5a: Wnt5a used to stimulate human SC cells (protein, UniProt P41221 62-380, looked up)
Protein Wnt-5a: IIGAQPLCSQLAGLSQGQKKLCHLYQDHMQYIGEGAKTGIKECQYQFRHRRWNCSTVDNTSVFGRVMQIGSRETAFTYAVSAAGVVNAMSRACREGELSTCGCSRAARPKDLPRDWLWGGCGDNIDYGYRFAKEFVDARERERIHAKGSYESARILMNLHNNEAGRRTVYNLADVACKCHGVSGSCSLKTCWLQLADFRKVGDALKEKYDSAAAMRLNSRGKLVQVNSRFNSPTTQDLVYIDPSPDYCVRNESTGSLGTQGRLCNKTSEGMDGCELMCCGRGYDQFKTVQTERCHCKFHWCCYVKCKKCTEIVDQFVCK
[4]
  intracellular calcium signal: regulated
[5]
  expression levels of FZD5, ROR1 and FZD2: regulated; also recorded: increased
  expression levels of PLCB1, PPP3R1 and NFATC3: regulated
  expression of CAMK2D: regulated
